Results from patent publication US20240425885.

Key:
Experiment in all cases: cleavage_in_vitro
[1] = test system: T1, OMNI-98 (metagenomic, unknown); conditions: TXTL; PAM NNAAATNN
T1 sequence: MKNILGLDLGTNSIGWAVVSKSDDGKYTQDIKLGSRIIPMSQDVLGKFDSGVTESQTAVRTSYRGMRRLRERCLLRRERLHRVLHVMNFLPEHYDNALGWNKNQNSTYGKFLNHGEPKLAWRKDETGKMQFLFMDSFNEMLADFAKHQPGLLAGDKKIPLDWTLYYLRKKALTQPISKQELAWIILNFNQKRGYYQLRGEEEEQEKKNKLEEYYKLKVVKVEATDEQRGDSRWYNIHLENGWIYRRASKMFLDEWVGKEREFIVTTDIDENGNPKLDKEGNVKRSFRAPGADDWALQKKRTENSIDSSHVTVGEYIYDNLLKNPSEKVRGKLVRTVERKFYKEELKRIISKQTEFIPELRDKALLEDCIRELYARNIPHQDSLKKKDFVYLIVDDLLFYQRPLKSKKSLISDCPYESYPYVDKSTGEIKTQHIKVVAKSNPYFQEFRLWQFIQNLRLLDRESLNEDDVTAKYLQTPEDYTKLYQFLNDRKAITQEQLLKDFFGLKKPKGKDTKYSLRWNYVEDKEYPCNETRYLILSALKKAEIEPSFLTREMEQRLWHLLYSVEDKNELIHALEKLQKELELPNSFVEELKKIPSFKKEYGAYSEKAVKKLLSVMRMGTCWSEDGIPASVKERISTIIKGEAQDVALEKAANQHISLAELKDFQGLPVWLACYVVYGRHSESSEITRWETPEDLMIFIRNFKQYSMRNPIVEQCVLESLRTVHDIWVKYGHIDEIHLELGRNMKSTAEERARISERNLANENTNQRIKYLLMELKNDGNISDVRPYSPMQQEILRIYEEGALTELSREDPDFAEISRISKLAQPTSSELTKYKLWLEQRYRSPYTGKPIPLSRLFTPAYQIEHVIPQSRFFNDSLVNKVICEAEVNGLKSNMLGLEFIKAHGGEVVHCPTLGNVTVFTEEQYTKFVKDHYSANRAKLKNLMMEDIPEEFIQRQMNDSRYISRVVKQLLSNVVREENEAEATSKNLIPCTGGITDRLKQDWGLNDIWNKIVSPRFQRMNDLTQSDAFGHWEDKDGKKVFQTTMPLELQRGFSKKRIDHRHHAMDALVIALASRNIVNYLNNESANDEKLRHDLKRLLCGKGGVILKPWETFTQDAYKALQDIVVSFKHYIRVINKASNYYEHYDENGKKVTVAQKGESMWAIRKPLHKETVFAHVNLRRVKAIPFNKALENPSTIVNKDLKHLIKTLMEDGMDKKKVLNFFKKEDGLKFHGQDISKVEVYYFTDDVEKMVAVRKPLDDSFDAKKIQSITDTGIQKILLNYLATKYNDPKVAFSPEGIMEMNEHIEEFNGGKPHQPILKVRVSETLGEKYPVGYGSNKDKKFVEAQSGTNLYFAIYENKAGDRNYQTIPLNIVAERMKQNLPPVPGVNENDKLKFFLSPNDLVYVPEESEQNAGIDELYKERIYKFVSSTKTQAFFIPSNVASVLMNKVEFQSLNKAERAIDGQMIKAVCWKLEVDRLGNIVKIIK

[2] = test system: T2, OMNI-93 (metagenomic, unknown); conditions: TXTL
T2 sequence: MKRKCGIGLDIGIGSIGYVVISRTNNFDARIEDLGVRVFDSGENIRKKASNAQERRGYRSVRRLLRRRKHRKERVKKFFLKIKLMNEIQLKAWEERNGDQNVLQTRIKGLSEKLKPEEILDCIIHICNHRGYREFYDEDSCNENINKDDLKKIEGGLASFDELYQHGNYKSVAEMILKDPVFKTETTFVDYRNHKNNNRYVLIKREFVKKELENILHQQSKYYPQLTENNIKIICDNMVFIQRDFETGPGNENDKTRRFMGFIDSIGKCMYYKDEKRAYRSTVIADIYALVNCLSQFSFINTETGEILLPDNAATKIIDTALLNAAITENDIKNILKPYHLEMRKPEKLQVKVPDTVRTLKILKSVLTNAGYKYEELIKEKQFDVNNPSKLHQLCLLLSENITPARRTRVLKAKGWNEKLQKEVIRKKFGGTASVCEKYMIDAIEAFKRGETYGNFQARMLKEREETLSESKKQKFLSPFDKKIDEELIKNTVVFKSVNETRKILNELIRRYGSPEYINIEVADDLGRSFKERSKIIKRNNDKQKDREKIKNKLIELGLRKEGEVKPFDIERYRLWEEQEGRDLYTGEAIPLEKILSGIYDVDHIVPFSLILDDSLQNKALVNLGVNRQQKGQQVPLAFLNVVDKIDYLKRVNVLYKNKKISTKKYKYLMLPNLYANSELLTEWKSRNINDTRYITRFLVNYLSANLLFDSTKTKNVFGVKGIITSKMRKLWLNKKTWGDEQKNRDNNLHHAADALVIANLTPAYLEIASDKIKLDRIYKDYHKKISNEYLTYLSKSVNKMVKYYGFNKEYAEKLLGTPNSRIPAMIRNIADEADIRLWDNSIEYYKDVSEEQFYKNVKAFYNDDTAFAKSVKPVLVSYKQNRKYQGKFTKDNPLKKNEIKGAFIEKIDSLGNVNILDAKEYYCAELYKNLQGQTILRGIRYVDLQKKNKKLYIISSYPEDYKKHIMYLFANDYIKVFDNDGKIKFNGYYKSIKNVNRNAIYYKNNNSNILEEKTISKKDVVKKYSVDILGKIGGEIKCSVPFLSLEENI

[3] = test system: T3, OMNI-132 (metagenomic, unknown); conditions: TXTL; PAM NNAAATNN
T3 sequence: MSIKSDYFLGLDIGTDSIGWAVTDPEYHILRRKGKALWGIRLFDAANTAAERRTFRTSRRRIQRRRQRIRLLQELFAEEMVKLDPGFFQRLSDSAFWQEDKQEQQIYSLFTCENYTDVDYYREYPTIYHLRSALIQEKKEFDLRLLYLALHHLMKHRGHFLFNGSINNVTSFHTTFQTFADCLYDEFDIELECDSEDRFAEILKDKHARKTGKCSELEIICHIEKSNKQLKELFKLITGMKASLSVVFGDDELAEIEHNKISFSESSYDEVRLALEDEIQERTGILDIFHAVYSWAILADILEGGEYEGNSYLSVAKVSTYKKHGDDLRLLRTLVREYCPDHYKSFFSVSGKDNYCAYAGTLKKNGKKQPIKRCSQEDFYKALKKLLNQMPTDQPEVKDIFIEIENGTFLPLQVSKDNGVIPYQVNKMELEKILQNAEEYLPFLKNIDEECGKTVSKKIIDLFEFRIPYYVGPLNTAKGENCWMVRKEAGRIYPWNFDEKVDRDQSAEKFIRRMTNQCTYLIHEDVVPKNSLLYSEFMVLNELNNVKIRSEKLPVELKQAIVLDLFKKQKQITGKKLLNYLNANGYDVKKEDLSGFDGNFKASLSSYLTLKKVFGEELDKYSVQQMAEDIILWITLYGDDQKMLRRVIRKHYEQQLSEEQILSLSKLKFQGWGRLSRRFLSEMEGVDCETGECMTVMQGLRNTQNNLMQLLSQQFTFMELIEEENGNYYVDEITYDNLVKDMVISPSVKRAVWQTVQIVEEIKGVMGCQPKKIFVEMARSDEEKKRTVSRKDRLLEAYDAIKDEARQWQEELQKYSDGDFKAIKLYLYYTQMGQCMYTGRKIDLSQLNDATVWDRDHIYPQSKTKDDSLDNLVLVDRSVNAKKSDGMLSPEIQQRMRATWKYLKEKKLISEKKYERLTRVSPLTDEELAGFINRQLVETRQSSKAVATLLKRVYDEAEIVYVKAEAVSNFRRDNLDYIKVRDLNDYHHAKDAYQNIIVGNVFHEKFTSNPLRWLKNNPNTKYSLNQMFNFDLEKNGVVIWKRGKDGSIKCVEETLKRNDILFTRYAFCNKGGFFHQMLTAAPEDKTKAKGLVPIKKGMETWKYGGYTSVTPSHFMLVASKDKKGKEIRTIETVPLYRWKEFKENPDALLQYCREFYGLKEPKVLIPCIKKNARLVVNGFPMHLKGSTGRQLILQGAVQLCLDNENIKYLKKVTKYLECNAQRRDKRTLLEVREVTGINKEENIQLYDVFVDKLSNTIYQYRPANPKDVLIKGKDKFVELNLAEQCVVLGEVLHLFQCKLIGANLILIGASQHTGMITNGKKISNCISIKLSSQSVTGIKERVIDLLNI

[4] = test system: T4, OMNI-96 (metagenomic, unknown); conditions: TXTL; PAM NYAAGNNN
T4 sequence: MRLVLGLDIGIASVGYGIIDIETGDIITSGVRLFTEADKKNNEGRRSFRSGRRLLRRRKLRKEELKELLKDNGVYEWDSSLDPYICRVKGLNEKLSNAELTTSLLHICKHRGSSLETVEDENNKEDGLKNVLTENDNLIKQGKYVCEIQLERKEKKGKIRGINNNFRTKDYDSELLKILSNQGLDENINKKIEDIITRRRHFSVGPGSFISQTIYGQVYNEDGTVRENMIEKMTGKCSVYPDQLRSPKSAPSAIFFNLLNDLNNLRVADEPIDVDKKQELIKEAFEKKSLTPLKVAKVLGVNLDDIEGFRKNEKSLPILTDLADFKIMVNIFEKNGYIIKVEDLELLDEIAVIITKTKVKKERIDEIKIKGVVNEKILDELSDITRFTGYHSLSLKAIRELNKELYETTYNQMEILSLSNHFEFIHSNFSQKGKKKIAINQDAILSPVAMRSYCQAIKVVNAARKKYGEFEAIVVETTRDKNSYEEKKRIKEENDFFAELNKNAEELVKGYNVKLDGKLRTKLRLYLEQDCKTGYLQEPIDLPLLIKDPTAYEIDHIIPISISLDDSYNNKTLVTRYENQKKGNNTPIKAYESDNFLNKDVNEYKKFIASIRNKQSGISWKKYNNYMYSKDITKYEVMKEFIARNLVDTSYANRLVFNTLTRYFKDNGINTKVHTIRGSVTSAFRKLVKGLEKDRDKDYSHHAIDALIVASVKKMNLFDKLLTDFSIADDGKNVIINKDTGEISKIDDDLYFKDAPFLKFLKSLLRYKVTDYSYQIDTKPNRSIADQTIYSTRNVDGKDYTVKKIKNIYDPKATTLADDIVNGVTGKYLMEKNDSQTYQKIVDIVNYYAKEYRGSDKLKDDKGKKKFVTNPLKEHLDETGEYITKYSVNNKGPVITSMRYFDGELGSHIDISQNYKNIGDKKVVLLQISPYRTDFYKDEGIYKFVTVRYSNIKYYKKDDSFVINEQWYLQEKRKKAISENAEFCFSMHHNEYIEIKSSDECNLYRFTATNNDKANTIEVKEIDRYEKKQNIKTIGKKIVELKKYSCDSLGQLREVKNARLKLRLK

**Q.** With “GGAAGAGCAGAGCCUUGGUCUCGUUGUGAAUUGCUUUCGAAAGAAAGCAAUUCACAAUAAGGAUUAUUCCGUUGUGAAAACAUUUAGGACGGGGCAACUCGUCCUUUGUUUUUUU / GGAAGAGCAGAGCCTTGGTCTCNNNNNNNN / NNNNNNNNGAGACCAAGGCTCTGCTCTTCC [T2 sgRNA 9 V1 ; T2 protospacer + 8N PAM library (pbPOS T2)]” as the sequence, how does the activity (1-depletion score) [1] read?
**A.** The activity (1-depletion score) was 0.93.

**Q.** With “GGAAGAGCAGAGCCUUGGUCUCGUUUUAGUACUCUGUUGGAAACAACAAUAGUUCUAAGAUAAGGCUAUUUAUGCCGUAGGGUAUGGUGGUAUCCCUUUAAUCCACCUUUAAGCCAUUGCUUAUGCAAUGGCUUAUCUAUAUUUUUU / GGAAGAGCAGAGCCTTGGTCTCNNNNNNNN / NNNNNNNNGAGACCAAGGCTCTGCTCTTCC [T2 sgRNA 4 V1 ; T2 protospacer + 8N PAM library (pbPOS T2)]” as the sequence, how does the activity (1-depletion score) ([2]; PAM NNGGGGNN (specific NNRGGDNN)) read?
**A.** The activity (1-depletion score) was 0.99.

**Q.** For “GGAAGAGCAGAGCCUUGGUCUCGUCUUAGUACUCUGUUGGAAACAACAAUAGUUCUAAGAUAAGGCUAUUUAUGCCGUAGGGUAUGGUGGUAUCCCUUUAAUCCACCUUUAAGCCAUUGCUUAUGCAAUGGCUUAUCUAUAUUUUUU / GGAAGAGCAGAGCCTTGGTCTCNNNNNNNN / NNNNNNNNGAGACCAAGGCTCTGCTCTTCC [T2 sgRNA 4 V2 ; T2 protospacer + 8N PAM library (pbPOS T2)]”, which activity (1-depletion score) ([2]; PAM NNGGGGNN) is on record?
**A.** Its activity (1-depletion score) is 0.97.

**Q.** With “GGAAGAGCAGAGCCUUGGUCUCGUUUGAGAGUAGUGUAAGAAAUUACACUACAAGUUCAAAUAAAAAUUUAUUCAAAUCCAUUUGCUACAUUGUGUAGAAUUUAAAGAUCUGGCAACAGAUCUUUUUUU / GGAAGAGCAGAGCCTTGGTCTCNNNNNNNN / NNNNNNNNGAGACCAAGGCTCTGCTCTTCC [T2 sgRNA 12 V2 ; T2 protospacer + 8N PAM library (pbPOS T2)]” as the sequence, how does the activity (1-depletion score) [3] read?
**A.** Its activity (1-depletion score) is 0.97.

**Q.** Which activity (1-depletion score) [3] does the source give for “GGAAGAGCAGAGCCUUGGUCUCGUUUGAGAGUAGUGUAAGAAAUUACACUACAAGUUCAAAUAAAAAUUUAUUCAAAUCCUUUUGCUACAUUGUGUAGAAUUUAAAGAUCUGGCAACAGAUCUUUUUUAUUUUUU / GGAAGAGCAGAGCCTTGGTCTCNNNNNNNN / NNNNNNNNGAGACCAAGGCTCTGCTCTTCC [T2 sgRNA 32 V1 ; T2 protospacer + 8N PAM library (pbPOS T2)]” here?
**A.** Its activity (1-depletion score) is 0.97.

**Q.** Which activity (1-depletion score) [4] does the source give for “GGAAGAGCAGAGCCUUGGUCUCGUUUUGCUACCCUAAAUUAGAAAAAUAUUAGGACCUAGCAAAACAAGGCUUUAUGCCGAAAUCGGAGUCGACGGGCUCCUUUUUU / GGAAGAGCAGAGCCTTGGTCTCNNNNNNNN / NNNNNNNNGAGACCAAGGCTCTGCTCTTCC [T2 sgRNA 7 V1 ; T2 protospacer + 8N PAM library (pbPOS T2)]” here?
**A.** The activity (1-depletion score) was 0.57.
